± gives the standard deviation of the averaged measurements.
System: ATP
Test: switch fluorescence ratio, 500 uM ATP over buffer (Cy3 cluster intensity, sum of 5 cycles each) (fold (ratio)); higher = stronger signal-on switching upon ATP binding; sequences stand for … in TCGTCGGCAGCGTCAGATGTGTATAAGAGACAGTTTTTTTTTTTTTTTTTTTTTTTTT…TC
Details: aptamer strand: ATP DNA aptamer (quencher-CACCTGGGGGAGTATTGCGGAGGAAGG + anchor), 100 nM annealed; ATP concentration: 500 uM
Summary of the method: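 After annealing to 100 nM quencher-labelled ATP aptamer, Cy3-labelled switching-strand clusters on a modified Illumina MiSeq flow-cell were imaged in selection buffer. A second image followed after 15 min with 500 uM ATP at 22 °C, and five such buffer/ATP cycles were done, each separated by NaOH stripping and re-annealing. The fluorescence ratio, averaged per switch-domain sequence, is summed target-cycle over summed buffer-cycle Cy3 intensity per cluster, with clusters outside 100-1000 RFU excluded.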
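Also: ATP exposure 15 min at 22 °C before imaging.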

| Sequence | switch fluorescence ratio |
| --- | --- |
| TAATTACAGT | 0.9904 ± 0.0021 |
| CATGTCAAGA | 1.01 ± 0.036 |
| TTTGGGAACT | 1 ± 0.021 |
| TTATGGGGAA | 0.987 ± 0.015 |
| ATGATGTGGA | 1.01 ± 0.077 |
| CAGGGAGGGA | 0.992 ± 0.02 |
| GTGTGATCTC | 0.992 ± 0.046 |
| CCTGAGACAC | 1.08 ± 0.052 |
| ATATGTGGCT | 0.99 ± 0.054 |
| TAACCGATGT | 1.01 ± 0.016 |
| GCCGGTGTTT | 1.02 ± 0.036 |
| GCGTCCGGGA | 1.21 ± 0.092 |
| AACAACTTTT | 1.04 ± 0.042 |
| TGGTTTTGCC | 1.005 ± 0.0082 |
| AATGCTCGCT | 1.022 ± 0.0061 |
| GACAAGGGGG | 0.981 ± 0.065 |
| GGCGTTTGTC | 1.03 ± 0.032 |
| ACGTCGTCGG | 0.964 ± 0.018 |
| AATTCCTACG | 2.571 ± 0.02 |
| TAAGGGGTAG | 0.994 ± 0.052 |
| TCTGAGGGTT | 1.13 ± 0.12 |

| Sequence | switch fluorescence ratio |
| --- | --- |
| AGGAGGGGGA | 1.03 ± 0.045 |
| GGTTTCCGGC | 1.008 ± 0.0087 |
| CGGGGGAGAG | 0.9847 ± 0.009 |
| TAAGGGGAGG | 1 ± 0.017 |
| ACTGGTTATC | 1.02 ± 0.046 |
| TGTTGTAAAG | 0.985 ± 0.03 |
| TATTTAGTCT | 1 ± 0.026 |
| TTTACATAAG | 1 ± 0.043 |
| ATGAAAGGCT | 1.02 ± 0.0022 |
| AGAGCGTTGT | 0.977 ± 0.023 |
| TTTTCCGGGC | 1.1 ± 0.014 |
| GTTGGCTATT | 0.984 ± 0.007 |
| TAGGTTGCTT | 1.02 ± 0.021 |
| CCTCGTTGAA | 1.22 ± 0.026 |
| TTTACCGCTA | 1.94 ± 0.58 |
| GCCTTAGCTC | 1.04 ± 0.015 |
| TTCTAATTTG | 0.968 ± 0.058 |
| CCAACGGTGC | 2.24 ± 0.095 |
| TGACTTGGGT | 0.991 ± 0.01 |
| AGGGTCGGTA | 1.02 ± 0.033 |
| ATAAGTGTTG | 0.979 ± 0.017 |
